Results published in PMC5467231 (2017).

T1: recombinant human FGFR1/Fc chimera (Sino Biological 10616-H03H) (human, UniProt P11362 22-376)
T1 chain: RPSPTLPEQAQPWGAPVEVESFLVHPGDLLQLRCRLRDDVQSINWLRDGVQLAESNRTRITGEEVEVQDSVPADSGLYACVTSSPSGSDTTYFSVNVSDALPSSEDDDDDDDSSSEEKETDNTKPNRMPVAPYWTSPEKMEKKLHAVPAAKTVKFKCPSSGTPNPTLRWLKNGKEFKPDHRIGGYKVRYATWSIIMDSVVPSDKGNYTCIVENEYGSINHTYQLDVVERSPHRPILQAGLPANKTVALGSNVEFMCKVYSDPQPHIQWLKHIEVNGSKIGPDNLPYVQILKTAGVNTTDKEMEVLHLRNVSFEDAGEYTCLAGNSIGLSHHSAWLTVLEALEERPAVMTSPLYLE


How the values were obtained:
[1] = target: T1, recombinant human FGFR1/Fc chimera …; experiment: SPR
[2] = target: recombinant human FGFR2/Fc chimera (Sino Biological 10824-H03H) (human, UniProt P21802 22-377); experiment: SPR
Sequence of recombinant human FGFR2/Fc chimera (Sino Biological 10824-H03H) (P21802 22-377): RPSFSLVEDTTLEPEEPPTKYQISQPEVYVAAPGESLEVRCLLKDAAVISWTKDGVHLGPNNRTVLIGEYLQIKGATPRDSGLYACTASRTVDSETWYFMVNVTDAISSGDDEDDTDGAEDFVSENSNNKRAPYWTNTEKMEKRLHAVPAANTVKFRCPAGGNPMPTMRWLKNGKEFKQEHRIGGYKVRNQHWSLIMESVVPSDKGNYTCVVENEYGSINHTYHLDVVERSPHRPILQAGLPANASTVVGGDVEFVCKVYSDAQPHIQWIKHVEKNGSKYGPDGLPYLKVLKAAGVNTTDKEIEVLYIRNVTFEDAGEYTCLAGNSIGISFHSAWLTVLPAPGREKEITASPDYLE

Binder | Kd [1] [nM] | Kd [2] [nM]
recombinant FGF8a (R&D Systems 4745-F8-050) (ligand) QHVREQSLVTDQLSRRLIRTYQLYSRTSGKHVQVLANKRINAMAEDGDPFAKLIVETDTFGSRVRVRGAETGLYICMNKKGKLIAKSNGKGKDCVFTEIVLENNYTALQNAKYEGWYMAFTRKGRPRKGSKTRQHQREVHFMKRLPRGHHTTEQSLRFEFLNYPPFTRSLRGSQRTWAPEPR | 39.2 | 31.5
recombinant FGF4 (Peprotech AF-100-31) (ligand) APTAPNGTLEAELERRWESLVALSLARLPVAAQPKEAAVQSGAGDYLLGIKRLRRLYCNVGIGFHLQALPDGRIGGAHADTRDSLLELSPVERGVVSIFGVASRFFVAMSSKGKLYGSPFFTDECTFKEILLPNNYNAYESYKYPGMFIALSKNGKTKKGNRVSPTMKVTHFLPRL | 3.61 | 6.94
